In one assay the target is T1, GST-Grk2 (Homo sapiens, UniProt P25098).
T1 construct: recombinant GST fusion from Sf9 cells, commercial
T1 sequence (P25098 1-689): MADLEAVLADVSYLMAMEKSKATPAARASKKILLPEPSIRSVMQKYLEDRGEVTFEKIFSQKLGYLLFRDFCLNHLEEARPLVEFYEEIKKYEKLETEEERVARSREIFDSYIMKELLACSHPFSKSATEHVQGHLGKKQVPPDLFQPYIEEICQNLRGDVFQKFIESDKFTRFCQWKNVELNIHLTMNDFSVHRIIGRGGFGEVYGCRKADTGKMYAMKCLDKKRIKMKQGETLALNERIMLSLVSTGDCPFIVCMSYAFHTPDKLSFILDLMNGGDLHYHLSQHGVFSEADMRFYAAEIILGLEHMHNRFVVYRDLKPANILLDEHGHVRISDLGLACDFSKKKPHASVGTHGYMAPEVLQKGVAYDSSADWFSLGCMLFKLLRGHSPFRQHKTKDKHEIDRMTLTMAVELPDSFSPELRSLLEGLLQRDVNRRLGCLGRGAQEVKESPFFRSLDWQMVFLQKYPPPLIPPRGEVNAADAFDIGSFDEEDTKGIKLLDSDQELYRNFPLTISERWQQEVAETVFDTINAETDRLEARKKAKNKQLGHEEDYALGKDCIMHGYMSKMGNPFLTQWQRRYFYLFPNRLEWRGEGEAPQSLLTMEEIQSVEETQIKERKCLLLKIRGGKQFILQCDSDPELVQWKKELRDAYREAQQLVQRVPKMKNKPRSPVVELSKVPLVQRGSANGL
Nature of the assay: ADP-Glo kinase assay with tubulin. It is filed as biochemical. The conditions noted are these: […] ATP, […] pig brain tubulin, […] MgCl2, pH […] °C; no P-Rex1. (In general: ADP-Glo turns the ADP formed in a reaction into a luminescent signal.)

In assay [1] the target is T2, GEF-dead His-P-Rex2 (P-Rex2 E30A,N212A) (human, UniProt Q70Z35 1-1606, E30A | N212A).
T2 construct: P-Rex2, human, with alanine mutations at Glu30 and Asn212 in the catalytic DH domain; also called GEF-dead P-Rex2; source: baculovirus-infected Sf9 cells, purified (Ni-NTA agarose, PD-10 desalting); not shown: 6His, N-terminal, kept
Nature of the assay: pull-down; 5 pmol P-Rex1 or P-Rex2 protein (2.5 pmol for P-Rex1 mutants) with 5 pmol GST, GST-Grk2 or GST-Grk5 in 20 μL detergent-free buffer (50 mM HEPES pH 7.2, 150 mM NaCl), 1 h on ice; GST proteins isolated on magnetic glutathione agarose, 45 min at 4°C, 4 washes in lysis buffer 2 (1% NP-40); western blot with P-Rex1 or P-Rex2 and GST antibodies. The note with it: both partners purified. For orientation: Immunoblotting shows a protein as a band on a membrane.

The target of assay [2] is T3, Recombinant human wild type His-P-Rex2 (human, UniProt Q70Z35 1-1606).
T3 construct: source: baculovirus-infected Sf9 cells, purified (Ni-NTA agarose, PD-10 desalting); not shown: 6His, N-terminal, kept
Described as above. The conditions noted are these: both partners purified.

Assay [3] addresses T4, GEF-dead EE-P-Rex1 (E56A, N238A) (human, UniProt Q8TCU6 1-1659, E56A | N238A).
T4 construct: P-Rex1, human, with point mutations E56A and N238A in the DH domain that abolish Rac-GEF activity; also called GEF-dead P-Rex1; source: baculovirus-infected Sf9 cells, purified using the EE tag
The description is as above. The conditions noted are these: both partners purified.

Assay [4] deals with T5, Recombinant human wild type EE-P-Rex1 (human, UniProt Q8TCU6 1-1659).
T5 construct: source: baculovirus-infected Sf9 cells, purified using the EE tag
The assay can be described thus: pull-down; as the GST-Grk2 pull-down of EE-P-Rex1, with increasing concentrations of prenylated EE-Gβ1γ2 (up to 20 pmol per sample) added during the binding assay; 0.008% cholate in all samples. The note with it: both partners purified.

Two molecules from paper PMC12569377, “P-Rex1 limits the agonist-induced internalization of GPCRs independently of its Rac-GEF activity” (Cell Reports, 2025) can be followed below.

T5 sequence (Q8TCU6 whole entry): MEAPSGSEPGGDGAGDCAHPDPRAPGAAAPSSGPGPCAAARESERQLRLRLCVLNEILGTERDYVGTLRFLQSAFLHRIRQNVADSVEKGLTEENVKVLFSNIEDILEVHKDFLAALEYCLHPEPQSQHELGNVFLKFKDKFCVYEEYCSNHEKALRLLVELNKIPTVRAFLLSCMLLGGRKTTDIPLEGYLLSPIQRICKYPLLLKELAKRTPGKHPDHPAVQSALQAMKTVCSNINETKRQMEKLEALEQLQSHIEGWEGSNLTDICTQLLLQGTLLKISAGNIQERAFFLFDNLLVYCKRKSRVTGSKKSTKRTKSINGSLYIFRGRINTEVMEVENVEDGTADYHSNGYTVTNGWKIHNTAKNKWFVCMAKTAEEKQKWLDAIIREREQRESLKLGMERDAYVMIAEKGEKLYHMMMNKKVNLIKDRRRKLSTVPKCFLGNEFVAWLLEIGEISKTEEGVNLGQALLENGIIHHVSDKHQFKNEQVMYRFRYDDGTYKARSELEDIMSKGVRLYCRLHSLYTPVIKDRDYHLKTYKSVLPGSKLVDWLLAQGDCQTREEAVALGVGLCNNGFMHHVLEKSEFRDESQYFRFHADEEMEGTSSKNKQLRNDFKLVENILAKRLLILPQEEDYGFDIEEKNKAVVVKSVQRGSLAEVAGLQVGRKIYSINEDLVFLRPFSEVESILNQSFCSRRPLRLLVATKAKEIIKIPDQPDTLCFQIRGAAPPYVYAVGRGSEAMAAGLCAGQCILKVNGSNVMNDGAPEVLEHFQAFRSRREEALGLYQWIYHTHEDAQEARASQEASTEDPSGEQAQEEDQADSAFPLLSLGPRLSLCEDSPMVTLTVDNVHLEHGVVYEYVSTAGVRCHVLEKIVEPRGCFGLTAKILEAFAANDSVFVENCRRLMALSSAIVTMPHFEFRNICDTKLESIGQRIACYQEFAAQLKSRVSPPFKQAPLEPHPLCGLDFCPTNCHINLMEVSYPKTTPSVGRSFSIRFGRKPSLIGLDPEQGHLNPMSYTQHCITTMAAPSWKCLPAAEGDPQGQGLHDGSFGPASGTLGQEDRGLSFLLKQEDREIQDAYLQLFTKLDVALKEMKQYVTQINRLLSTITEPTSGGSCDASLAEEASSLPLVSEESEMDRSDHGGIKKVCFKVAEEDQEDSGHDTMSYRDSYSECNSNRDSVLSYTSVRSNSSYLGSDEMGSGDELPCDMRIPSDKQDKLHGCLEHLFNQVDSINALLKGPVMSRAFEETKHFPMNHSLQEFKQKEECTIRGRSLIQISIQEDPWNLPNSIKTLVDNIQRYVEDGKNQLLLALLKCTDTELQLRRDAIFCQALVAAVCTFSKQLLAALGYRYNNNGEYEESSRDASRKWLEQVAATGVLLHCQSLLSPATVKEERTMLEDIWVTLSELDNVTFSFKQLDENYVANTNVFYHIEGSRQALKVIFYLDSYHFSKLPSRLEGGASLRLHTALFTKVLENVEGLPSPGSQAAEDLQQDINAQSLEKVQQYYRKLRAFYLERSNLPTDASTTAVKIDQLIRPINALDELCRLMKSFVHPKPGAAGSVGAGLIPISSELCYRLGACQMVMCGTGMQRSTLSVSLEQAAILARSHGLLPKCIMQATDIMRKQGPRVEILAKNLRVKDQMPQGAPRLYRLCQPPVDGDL
T3 sequence (Q70Z35 whole entry): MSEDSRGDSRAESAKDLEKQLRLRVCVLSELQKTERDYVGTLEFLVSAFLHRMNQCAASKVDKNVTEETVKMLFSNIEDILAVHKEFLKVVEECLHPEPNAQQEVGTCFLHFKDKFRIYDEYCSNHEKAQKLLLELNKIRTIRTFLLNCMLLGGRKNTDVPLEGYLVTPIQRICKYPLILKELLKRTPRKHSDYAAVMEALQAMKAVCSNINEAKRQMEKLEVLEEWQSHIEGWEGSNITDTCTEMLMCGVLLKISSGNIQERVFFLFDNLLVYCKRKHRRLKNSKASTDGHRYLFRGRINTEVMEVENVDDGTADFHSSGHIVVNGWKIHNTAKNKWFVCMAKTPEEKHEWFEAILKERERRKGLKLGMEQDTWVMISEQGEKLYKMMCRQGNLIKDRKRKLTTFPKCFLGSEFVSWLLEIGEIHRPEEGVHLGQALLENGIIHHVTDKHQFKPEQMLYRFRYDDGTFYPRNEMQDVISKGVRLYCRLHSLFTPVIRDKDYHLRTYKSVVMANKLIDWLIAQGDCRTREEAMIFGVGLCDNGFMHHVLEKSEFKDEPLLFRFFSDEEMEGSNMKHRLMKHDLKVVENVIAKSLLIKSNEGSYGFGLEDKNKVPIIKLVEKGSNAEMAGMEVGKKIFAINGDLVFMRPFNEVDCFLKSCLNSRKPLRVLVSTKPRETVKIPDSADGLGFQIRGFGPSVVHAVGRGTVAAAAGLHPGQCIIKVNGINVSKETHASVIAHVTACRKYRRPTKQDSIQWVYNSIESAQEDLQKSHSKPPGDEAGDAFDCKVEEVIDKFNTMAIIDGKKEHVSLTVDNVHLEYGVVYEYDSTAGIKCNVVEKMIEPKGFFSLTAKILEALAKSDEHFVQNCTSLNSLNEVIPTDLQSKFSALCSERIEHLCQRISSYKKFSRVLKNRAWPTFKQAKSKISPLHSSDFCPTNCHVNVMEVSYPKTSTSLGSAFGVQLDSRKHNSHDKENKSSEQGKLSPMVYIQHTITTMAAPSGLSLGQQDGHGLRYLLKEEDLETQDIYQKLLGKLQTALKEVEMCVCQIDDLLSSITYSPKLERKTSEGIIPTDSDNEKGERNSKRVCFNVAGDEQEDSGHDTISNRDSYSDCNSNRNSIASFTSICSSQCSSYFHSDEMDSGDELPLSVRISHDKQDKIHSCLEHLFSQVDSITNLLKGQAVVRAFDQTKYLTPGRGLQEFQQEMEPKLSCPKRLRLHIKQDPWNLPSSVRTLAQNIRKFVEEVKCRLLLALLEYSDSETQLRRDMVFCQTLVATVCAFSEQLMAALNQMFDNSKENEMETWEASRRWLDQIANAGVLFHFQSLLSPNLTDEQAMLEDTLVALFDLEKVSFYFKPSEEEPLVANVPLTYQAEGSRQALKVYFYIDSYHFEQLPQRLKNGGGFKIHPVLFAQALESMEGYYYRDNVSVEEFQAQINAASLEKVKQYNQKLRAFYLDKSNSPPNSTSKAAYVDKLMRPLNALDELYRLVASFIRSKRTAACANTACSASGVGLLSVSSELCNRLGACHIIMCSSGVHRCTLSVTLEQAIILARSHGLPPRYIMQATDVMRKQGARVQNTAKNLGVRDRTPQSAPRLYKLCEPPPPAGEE
T2 sequence (Q70Z35 whole entry E30A/N212A, the tested form may be a part): as the sequence (Q70Z35 whole entry) above, with E30A, N212A counted along it
T4 sequence (Q8TCU6 whole entry E56A/N238A, the tested form may be a part): as the sequence (Q8TCU6 whole entry) above, with E56A, N238A counted along it

`Nc1ncnc2c1ncn2[C@@H]1O[C@H](COP(=O)(O)OP(=O)(O)OP(=O)(O)O)[C@@H](O)[C@H]1O` [ATP]: the “ADP-Glo kinase assay with tubulin” value at GST-Grk2 is on record as “GST-Grk2 was able to phosphorylate tubulin”.

B1: Recombinant human GST-Grk2 (enzyme, UniProt P25098 1-689, looked up)
chain: T1 sequence (P25098 1-689)
notes: G protein-coupled receptor kinase 2 (Grk2), human, Sf9 cell-derived recombinant GST fusion; also called G protein-coupled receptor kinase 2; source: bought: Abcam (ab125620), Sf9 cell-derived, purified recombinant
Consider B1, for which the binding result in assay [1], in assay [2], in assay [3] and in assay [4] was “binds” each time.
